The source of these data is US20060121553A1, “Fluorogenic enzyme assay methods, kits and compositions using charge-balancers” (Applera Corporation, priority 2004, published 2006).

*: point of attachment. Palmitoyl = CCCCCCCCCCCCCCCC(=O)*; K(Dye 2) = not defined here; code O = not defined here

A short description of data set [1]: Total charge of substrate molecule and charge-balance molecule. Format: physicochemical. The source says: FIG. 6B illustrates an exemplary charge-balance molecule (i.e. C16ArgArgOOOArgArgIleTyrGlyArgPheNH2, wherein OOO represents the optional O-spacers) that can be used balance the charge of the substrate molecule illustrated in FIG. 6A. The substrate molecule illustrated in FIG. 6A comprises a fluorescent moiety containing a sulfonate anion with a charge of ^−2. The substrate molecule illustrated in FIG. 6A further comprises a substrate moiety comprising three glutamate residues, each with a −1 charge. Thus, the total negative charge of the substrate molecule illustrated in FIG. 6A is ^−5 at physiological pH. […] The total positive charge of the charge-balance molecule illustrated in FIG. 6B is ^+5 at pH 7.6. Thus, the net charge of the compound comprising the substrate molecule illustrated in FIG. 6A and the charge-balance molecule illustrated in FIG. 6B is approximately zero at pH 7.6.

The next data set deals with tyrosine kinase Lyn (Homo sapiens, UniProt P07948). Kind of data set: Detection of protein kinase activity (fluorogenic micelle assay). To be noted: 2 μM substrate molecule, 2 μM charge-balance molecule, 0 or 100 μM ATP, 5 nM Lyn; FIG. 8. It is filed as biochemical. How it is done: Kinase assays were performed using Corning 384-well, black, non-binding surface (NBS), microwell plates. Fluorescence was read in real time using a Molecular Dynamics Gemini XS plate reader, with excitation and emission set at 500 and 550 respectively. The plate was read every minute for one hour at ambient temperature.
Sequence of tyrosine kinase Lyn (P07948 whole entry): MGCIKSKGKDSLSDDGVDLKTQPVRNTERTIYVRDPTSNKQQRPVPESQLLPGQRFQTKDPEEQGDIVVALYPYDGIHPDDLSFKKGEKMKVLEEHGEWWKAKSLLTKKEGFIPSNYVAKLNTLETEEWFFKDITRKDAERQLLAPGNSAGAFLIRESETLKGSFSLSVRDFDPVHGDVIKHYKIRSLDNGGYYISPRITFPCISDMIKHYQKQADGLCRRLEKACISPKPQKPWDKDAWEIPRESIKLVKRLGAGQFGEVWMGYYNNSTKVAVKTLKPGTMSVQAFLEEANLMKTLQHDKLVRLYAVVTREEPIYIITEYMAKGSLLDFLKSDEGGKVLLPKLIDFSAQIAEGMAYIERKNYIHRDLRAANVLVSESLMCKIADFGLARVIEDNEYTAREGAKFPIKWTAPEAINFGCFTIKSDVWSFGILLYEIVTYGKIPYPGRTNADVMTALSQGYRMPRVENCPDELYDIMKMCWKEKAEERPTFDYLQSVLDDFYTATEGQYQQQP
Concentrations of the substrate molecule C16Lys(Dye 2)OOOGluGluIleTyrGlyGluPheNH2 and charge-balance molecule C16ArgArgOOOArgArgIleTyrGlyArg PheNH2 were determined by dilution of the purified peptides into dimethylformamide (200 µL) with 1 M NaOH (5 µL) and measuring the absorbance of 5-carboxy-2′,7′-dipyridyl-sulfonefluorescein (Dye2) at its absorbance maximum (548 nm). The extinction coefficient of Dye2 was assumed to be 80,000 cm1M-1.
A reaction solution was prepared containing the substrate molecule C16Lys(Dye 2)OOOGluGluIleTyrGlyGluPheNH2 (2 μM), and charge-balance molecule C16ArgArgOOOArgArgIleTyrGlyArg PheNH2 (2 μM), 20 mM Tris buffer, pH 7.6, MgCl2 (5 mM), DTT (5 mM) and Lyn (5 nM). The solution was pipetted into wells of a 384-well plate ([…] per well). ATP (0 or 100 μM) was added to initiate the kinase reaction. The plate was read at 500 nm excitation, 550 nm emission, each minute for 1 hour.

Data set [2] deals with T1, substrate molecule C16Lys(Dye 2)OOOGluGluIleTyrGlyGluPheNH2.
T1 sequence: KEEIYGEF

For the substance “C16ArgArgOOOArgArgIleTyrGlyArgPheNH2 ({Palmitoyl-Arg-Arg-code O-code O-code O}-RRIYGRF-NH2; reading uncertain; also: printed as C16ArgArgOOOArgArgIleTyrGlyArgPheNH2) [charge-balance molecule balancing the charge of the substrate molecule; OOO = O-spacers]”, the total positive charge entry in data set [1] (pH 7.6) is given as “+5”.

Regarding “C16Lys(Dye 2)OOOGluGluIleTyrGlyGluPheNH2 ({Palmitoyl-K(Dye 2)-code O-code O-code O}-EEIYGEF-NH2; reading uncertain; also: printed as C16Lys(Dye 2)OOOGluGluIleTyrGlyGluPheNH2) [substrate molecule for tyrosine kinase Lyn; OOO = O-spacers, Dye2 = 5-carboxy-2′,7′-dipyridyl-sulfonefluorescein]”, in the data set with tyrosine kinase Lyn, the “fluorescence change on addition of tyrosine kinase Lyn” value is “increase in fluorescence over time”. The same substance gave a total negative charge in data set [1] (physiological pH) of −5.

Consider tyrosine kinase Lyn, for which the “fluorescence over time (rate of the kinase reaction, 0 or 100 µM ATP)” value in data set [2] was “The addition of tyrosine kinase Lyn to the micelle comprising the substrate molecule and charge-balance molecule cause an increase in fluorescence over time”.
